The target in the series is mature TGF-β1, P04202.
mature TGF-β1, P04202, sequence (P04202 279-390): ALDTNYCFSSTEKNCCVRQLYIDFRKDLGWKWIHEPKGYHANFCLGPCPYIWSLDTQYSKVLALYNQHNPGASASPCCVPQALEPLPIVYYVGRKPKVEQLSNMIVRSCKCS

B1: Htra3 tagged with FLAG at the C-terminus (Htra3-flag protein) (protein)
chain: REPPAAPCPARCDVSRCPSPRCPGGYVPDLCNCCLVCAASEGEPCGRPLDSPCGDSLECVRGVCRCRWTHTVCGTDGHTYADVCALQAASRRALQVSGTPVRQLQKGACPSGLHQLTSPRYKFNFIADVVEKIAPAVVHIELFLRHPLFGRNVPLSSGSGFIMSEAGLIVTNAHVVSSSSTASGRQQLKVQLQNGDAYEATIQDIDKKSDIATIVIHPKKKLPVLLLGHSADLRPGEFVVAIGSPFALQNTVTTGIVSTAQRDGKELGLRDSDMDYIQTDAIINYGNSGGPLVNLDGEVIGINTLKVAAGISFAIPSDRITRFLSEFQNKHVKDWKKRFIGIRMRTITPSLVEELKAANPDFPAVSSGIYVQEVVPNSPSQRGGIQDGDIIVKVNGRPLADSSELQEAVLNESSLLLEVRRGNDDLLFSIIPEVVM
B1: the “protein levels of TGF-β1 and phosphorylated Smad2/3 in primary cardiac fibroblasts (western blot)” value was “overexpression of Htra3 reduced the protein levels of both TGF-β1 and phosphorylated Smad2/3 (phospho-Smad2/3), a marker of activated TGF-β signaling”.

The values are drawn from patent publication US20260000742.
